No end group written: not given here.

In article PMC7582164, “The soluble neurexin-1β ectodomain causes calcium influx and augments dendritic outgrowth and synaptic transmission” (Scientific Reports, 2020) one finds Kd data, which are given here for two molecules.

Test [1] addresses Recombinant neuroligin-1 (NL-1) (UniProt Q62765). Kind of test: SPR; Biacore 2000; NL-1 immobilised on a CM4 chip by amine coupling (~2800 RU); analyte NX-1β Fc chimera 0.05-0.8 µM or Neurexide 1.25-20 µM; 25 °C; HBS-P (10 mM HEPES pH 7.4, 150 mM NaCl, 0.005% P20) with 3 mM CaCl2; 30 µl/min; 1:1 Langmuir fit. (In SPR one partner is held on a chip, and binding of the other changes the refractive index at the surface.)

Test [2] deals with T1, Recombinant neuroligin-1 (NL-1) (UniProt Q62765 46-697).
T1 construct: neuroligin-1, recombinant; source: bought: R&D Systems (cat# 4340-NL)
T1 sequence (Q62765 46-697): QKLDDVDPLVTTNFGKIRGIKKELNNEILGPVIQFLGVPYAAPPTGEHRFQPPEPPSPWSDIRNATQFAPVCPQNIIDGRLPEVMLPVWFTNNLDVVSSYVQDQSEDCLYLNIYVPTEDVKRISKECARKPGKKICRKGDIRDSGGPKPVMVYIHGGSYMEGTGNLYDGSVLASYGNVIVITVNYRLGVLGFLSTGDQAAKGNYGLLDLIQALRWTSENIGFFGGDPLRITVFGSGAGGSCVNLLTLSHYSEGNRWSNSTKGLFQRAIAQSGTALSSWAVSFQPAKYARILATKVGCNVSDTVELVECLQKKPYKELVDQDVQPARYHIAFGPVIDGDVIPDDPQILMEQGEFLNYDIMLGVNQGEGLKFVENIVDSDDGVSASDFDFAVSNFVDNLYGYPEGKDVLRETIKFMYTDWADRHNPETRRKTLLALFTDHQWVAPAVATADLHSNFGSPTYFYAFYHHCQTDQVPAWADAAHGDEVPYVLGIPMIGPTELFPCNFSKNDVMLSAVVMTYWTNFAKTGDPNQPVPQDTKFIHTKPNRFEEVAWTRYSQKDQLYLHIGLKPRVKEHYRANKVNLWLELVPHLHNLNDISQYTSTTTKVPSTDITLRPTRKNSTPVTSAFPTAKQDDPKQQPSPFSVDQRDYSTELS
The description is as above. To be noted: both partners purified.

Chain of Recombinant neuroligin-1 (NL-1) (UniProt Q62765) (Q62765 46-697): as above

For the molecule “Human neurexin-1β Fc-chimera (NX-1β ectodomain lacking splice site 4) (from UniProt P58400 51-396) (Fc fusion)”, the dissociation constant Kd in test [1] is 32 nM.

B1: Neurexide (synthetic 10-mer peptide modeled after the NX-1β binding site for NL-1), tetramer on a lysine backbone (peptide)
peptide: ARPSTRADRA
modifications: also: tetramer coupled to a lysine backbone
notes: The peptide was made as a C-terminally amidated monomer, a dimer and a tetramer; also called Neurexin peptide; source: synthetic peptide
On to B1, for which the dissociation constant (Kd) in test [2] amounted to 480 nM.

Usually Kd stands for the equilibrium constant for the complex coming apart.
